Data on one molecule can be found in PMC12499889, “Voltage-matrix nanopore profiling for the discrimination of protein mixtures”.

This data set deals with carcinoembryonic antigen (CEA) (UniProt P06731 35-685). The data set can be described thus: solid-state nanopore (single-molecule); 3.6 M LiCl; 10 nM CEA, 1 uM aptamer; shift in signal distribution; 3.6 M LiCl, 10 mM HEPES-KOH pH 8.0; 1 uM aptamer incubated with 10 nM CEA for 1 h; temperature not stated; nanopore at -50 to -300 mV. The note with it: protein: commercial.
carcinoembryonic antigen (CEA), sequence (P06731 35-685): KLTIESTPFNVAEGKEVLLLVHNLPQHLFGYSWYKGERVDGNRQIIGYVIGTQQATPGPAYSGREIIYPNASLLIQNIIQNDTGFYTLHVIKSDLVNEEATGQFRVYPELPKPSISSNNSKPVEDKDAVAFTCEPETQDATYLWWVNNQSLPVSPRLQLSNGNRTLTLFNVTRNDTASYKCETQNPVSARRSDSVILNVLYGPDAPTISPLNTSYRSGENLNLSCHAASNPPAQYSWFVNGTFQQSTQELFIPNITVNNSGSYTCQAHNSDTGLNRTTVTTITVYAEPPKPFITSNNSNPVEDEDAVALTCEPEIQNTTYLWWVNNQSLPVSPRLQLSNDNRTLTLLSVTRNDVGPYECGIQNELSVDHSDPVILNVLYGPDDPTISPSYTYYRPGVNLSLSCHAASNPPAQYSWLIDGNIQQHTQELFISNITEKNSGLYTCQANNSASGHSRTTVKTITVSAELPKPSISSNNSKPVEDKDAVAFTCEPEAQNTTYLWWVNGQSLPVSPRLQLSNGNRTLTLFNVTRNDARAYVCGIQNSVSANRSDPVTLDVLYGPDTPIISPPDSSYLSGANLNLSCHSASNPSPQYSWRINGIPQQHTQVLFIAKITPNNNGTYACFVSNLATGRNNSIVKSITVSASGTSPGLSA

B1: CEA DNA aptamer (ssDNA)
DNA: TCGCGCGAGTCGTCTGGGAGCTACGTTTAGCGAGTCCGACGCTCGGTGCCTCTTCGGGAGGACGATGCGG
Regarding B1, the binding result is given as “binds”.
